From PMC4072508, “Genome-Wide Prediction and Validation of Peptides That Bind Human Prosurvival Bcl-2 Proteins” (PLoS Computational Biology, 2014)

T1: Mcl-1, Q07820
T1 chain: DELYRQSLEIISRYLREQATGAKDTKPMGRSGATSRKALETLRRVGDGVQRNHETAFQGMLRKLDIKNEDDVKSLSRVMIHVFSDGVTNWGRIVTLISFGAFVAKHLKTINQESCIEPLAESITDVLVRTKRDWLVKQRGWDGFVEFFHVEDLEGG


Columns and labels:
Bcl-xL, Q07817 = experiment: peptide SPOT array, c-Myc-tagged receptor at 1 uM or 100 nM, anti-c-Myc-Cy3
Mcl-1, Q07820 = target: T1, Mcl-1, Q07820; experiment: as above

Sequence of Bcl-xL, Q07817 (Q07817 1-209): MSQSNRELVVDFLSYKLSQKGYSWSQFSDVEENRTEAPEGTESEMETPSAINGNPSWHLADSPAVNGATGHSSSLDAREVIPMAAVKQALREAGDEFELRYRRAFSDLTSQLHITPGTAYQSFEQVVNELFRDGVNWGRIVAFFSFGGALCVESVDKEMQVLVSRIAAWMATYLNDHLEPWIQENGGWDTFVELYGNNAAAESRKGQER

| Binder | SPOT signal as a fraction of Bim BH3's signal on the same receptor and array (Bcl-xL, Q07817) | SPOT signal as a fraction of Bim BH3's signal on the same receptor and array (Mcl-1, Q07820) |
| --- | --- | --- |
| SQGDKRVAFFDRKGADCLSKWVGESE [ATAD2] | 0.02 | 0.02 |
| LRVSTKIGSCMKSVGEVMGIGRSFEE [CAD] | 0.05 | 0.04 |
| GSGLHGWAFTDKQFAEMYVAKFAAKG [EEF2] | 0.12 | 0.03 |
| TLHFNQRGTWLASGLDDLKVVVWDWV [DCAF8] | 0.02 | 0.02 |
| AALFLHAGCQLLTALEDGKVQVWSGS [TEP1] | 0.02 | 0.01 |
| LRCEMASTGEDACFGEGIHTAFLKAM | 0.02 | 0.03 |
| FRLAQMCGLHIVVHADELEELINYYQ | 0.02 | 0.02 |
| ITVVGDVGGRDAIIVDDIIDDVESFV [PRPSAP1] | 0.02 | 0.01 |
| KKCQDMIMTELTNAGDDVVVFYNDKA [ITPR3] | 0.02 | 0.01 |
| AFTEREASEIMKSIGEAIQYLHSINI [MAPKAPK2] | 0.02 | 0.02 |
| DEHISYVATKVCHLGDQLEGVNTPRQ [EXOC5] | 0.02 | 0.01 |
| FRLAQMCGLHIVVHLDELEELINYYQ | 0.02 | 0.02 |
| LSPGRSVTAGIIIVLDEILKGHTQDT [FLAD1] | 0.01 | 0.01 |
| AKFLLYLGHSDSTWGDRMWHFAVSVF [SLC40A1] | 0.03 | 0.03 |
| FRFAQLCGLHIVIHLDELEELMCYYQ [CLTCL1] | 0.02 | 0.03 |
| DVGTGAGLLEIKKILDEYFTFITDCK | 0.02 | 0.02 |

| Binder | SPOT signal as a fraction of Bim BH3's signal on the same receptor and array (Bcl-xL, Q07817) | SPOT signal as a fraction of Bim BH3's signal on the same receptor and array (Mcl-1, Q07820) |
| --- | --- | --- |
| SRQPRDFGDSLARGLKGFLRGVVGGV [VPS13C] | 0.34 | 0.18 |
| NKRHRPIGIGDQGLADAFILMRYPFE [RRM1] | 0.02 | 0.02 |
| KLPVVGIGKHLCGMLTDLALRCLVET | 0.04 | 0.03 |
| KLPVVGIGKHLCGMATDLALRCLVET | 0.04 | 0.03 |
| EKVLIFGGDIDKFAGDALLALWRVER [ADCY10] | 0.02 | 0.02 |
| ISDVQVFGYSLRFNLDLLRSAVQQVN [DBC1] | 0.03 | 0.02 |
| KRALIQCAKDIAKALDEVTRLAKEVA | 0.21 | 0.05 |
| DVGTGAGLLEDKKIGDEYFTFITDCK | 0.01 | 0.01 |
| GLFSATSGVDDKYVADTFGQEVRPVS [DDX7] | 0.02 | 0.01 |
| RHFVIRRGQVLREILEEYGGVMVSFP [HDLBP] | 0.04 | 0.05 |
| KRALIQCAKDDAKASDEVTRLAKEVA | 0.05 | 0.02 |
| CDLLGAKGKDILYIGDHIFGDILKSK | 0.04 | 0.04 |
| HGTSSRIGSSMKSVLEVMAIGRTFEE | 0.02 | 0.02 |
| ELQAPATVQSLGLLGDRLCVGAAGGF [CDC42BPG] | 0.01 | 0.01 |
| CDLLGAKGKDDLYIGDHIFGDILKSK | 0.02 | 0.04 |
